Reference: patent US20090023139A1, “Method For Site-Specifically Introducing Non-Natural Amino Acid Into Protien Using Mitochondrial Protein and Method For Effectively Preparing Trna” (priority 2004, published 2009)

Experiments:
[1] = system: tRNA^Tyr precursor having on the 5′ end an additional sequence; experiment: Confirmation of C5 protein and M1 RNA (RNase P) cleavage activity; type: biochemical; conditions: 150 pmol tRNA^Tyr precursor; 7M urea denatured polyacrylamide gel, methylene blue; FIG. 7
Experimental: In order to assay enzyme activity, 150 pmol of the tRNA^Tyr precursor having on the 5′ end an additional sequence was subjected to the reaction with 30 pmol of C5 proteins and […] of M1 RNA. The reaction buffer comprises 50 mM Tris-HCl (pH 7.4), 10 mM MgCl2, and 100 mM NH4Cl. The reaction solution was separated using a 7M urea-containing denatured polyacrylamide gel, and nucleic acid components were stained with methylene blue.

mt tRNA^Trp = experiment: Assay of aminoacylation activity using 14C tryptophan; type: biochemical, yeast; conditions: 30° C., 0-16 minutes; mtWRS with mt tRNA^Trp; FIG. 11
Experimental: In order to assay enzyme activity, aminoacylation was carried out using ^14C tryptophan. The reaction solution having the composition shown below was heated at 30° C. for about 5 minutes while the enzyme was removed therefrom. Thereafter, the enzyme was added, the mixture was incubated at 30° C., the mixture was spotted on a filter wetted with 5% TCA 0, 1, 4, 9, and 16 minutes after incubation, and the filter was then soaked in 5% TCA. After spotting of the reaction solution at each time point was completed, 5% TCA was discarded, and fresh 5% TCA was added to the beaker, followed by shaking for 10 minutes. This procedure was repeated twice, 100% ethanol was added, and the mixture was lightly shaken, followed by dehydration under an electric heat. Thereafter, the resultant was soaked in a scintillator, and the samples were counted using a liquid scintillation counter.
The reaction solution for aminoacylation (50 μl) was prepared by diluting 10 μl of 5×AAM (aminoacylation mixture), 0.05 A260 units of mt tRNA^Trp, an adequate amount of enzyme (depending on the concentration), and 2 μl of ^14C tryptophan in dH2O.
The 5×AAM (aminoacylation mixture) comprised 500 mM Tris-HCl (pH 7.6), 50 mM MgCl2, 200 mM KCl, and 20 mM ATP.
A scintillator (1 liter) was prepared by diluting 4 g of Dotite DPO and 0.1 g of Dotite POPOP in toluene.

| cleavage activity [1] | Molecule | capacity of tRNA for accepting 14C-tryptophan (mt tRNA^Trp) |
| --- | --- | --- |
| Cleavage activity could not be confirmed | C5 protein: protein component of E. coli RNase P (rnpA gene), expressed from pETC5 (protein, UniProt P0A7Y8 1-119, looked up) Ribonuclease P protein …: MVKLAFPRELRLLTPSQFTFVFQQPQRAGTPQITILGRLNSLGHPRIGLTVAKKNVRRAHERNRIKRLTRESFRLRQHELPAMDFVVVAKKGVADLDNRALSEALEKLWRRHCRLARGS |  |
|  | mtWRS: yeast (Saccharomyces cerevisiae) mitochondrial tryptophanyl tRNA synthetase, SEQ ID NO: 2, His-tagged, expressed from pYC2WRS (protein, His tag) ISTVQRADFKLNSEALHSNATVFSMIQPTGCFHLGNYLGATRVWTDLCELKQPGQELIFGVADLHAITVPKPDGEMFRKFRHEAVASILAVGVDPEKASVIYQSAIPQHSELHWLLSTLASMGLLNRMTQWKSKSNIKQSTNGDYLVNDSDVGKVRLGLFSYPVLQAADILLYKSTHVPVGDDQSQHLELTRHLAEKFNKMYKKNFFPKPVTMLAQTKKVLSLSTPEKKMSKSDPNHDSVIFLNDEPKAIQKKIRKALTDSISDRFYYDPVERPGVSNLINIVSGIQRKSIEDVVEDVSRFNNYRDFKDYVSEVIIEELKGPRTEFEKYINEPTYLHSVVESGMRKAREKAAKNLADIHKIMGF | acceptance of tryptophan was observed |
